B1: Protein RED1 (Saccharomyces cerevisiae), P14291 (parent)
chain: MEGLKKKIFGVCLKNDLAQTRNETKGIHYGLMTLETSKQLQEFLHLLVIKREVIQNFELLFHIINVAVKITDSNLPSDDIWHFILKLRFSSEINIDEDSKVLNYLLETGIAMENPVSWKCLAVISSILSSVPQSKKIITNLIETEHAKKIGQLFDNIQDLQQGNFLVEILSNCFKKSASNSKKVEKIPQLWQSRSKNKFFFENEFYPFSSKNGSLQTCQFLCNNFMSTLSFTGILRQVSYSGSETLKNLRIFKKKDDENSYFIQCIYNKIYLWLDEKAPLEFERKKIRITKNLKNKIQIKLRQPFHECVRTTADKTALLFNKTKGFQLEFEDEKLGETFFHNVNNIPKISEVQNFLVLDYIEEEPENEGEEEEQIGRADEQKEDEEEESLDELSTPMVYPIKSSIPHNHNEKVQLVTPDRSVSIRSDEWDLKSNTEDEEGNVLADLKISSTKETKRQTDYVHIDSEDQSPVVSAQMRKMRRESTKTLEILRQEFKDKDVQNKEDQSEQIQNPFVNTSSLVVGKSCLVNPKEKPNIDQTVVGITELKSNSSIKKRDINILDTIFGQPPSKKQKQFHKKEKKKQQKKLTNFKPIIDVPSQDKRNLRSNAPTKPKSIKVSKLRTDKKVTGEKSSPETAAEKVDDQTVRSNDEQAMSRATKEKCFPDVNEGKEITKDDAKVSLESKKNNETFVDSSVVEKHTPPDKDCNNCNITDILESTTVIDLQSPHGLSAPGQNTFTNKLQEQIYSSINHFSNELVRKISIINQELNKKILKELSEKYQKLFSELQDNFQNDTNEMLKFMGEIKDMMNLPEDQLVHAIRTRKFDNNKR
partner: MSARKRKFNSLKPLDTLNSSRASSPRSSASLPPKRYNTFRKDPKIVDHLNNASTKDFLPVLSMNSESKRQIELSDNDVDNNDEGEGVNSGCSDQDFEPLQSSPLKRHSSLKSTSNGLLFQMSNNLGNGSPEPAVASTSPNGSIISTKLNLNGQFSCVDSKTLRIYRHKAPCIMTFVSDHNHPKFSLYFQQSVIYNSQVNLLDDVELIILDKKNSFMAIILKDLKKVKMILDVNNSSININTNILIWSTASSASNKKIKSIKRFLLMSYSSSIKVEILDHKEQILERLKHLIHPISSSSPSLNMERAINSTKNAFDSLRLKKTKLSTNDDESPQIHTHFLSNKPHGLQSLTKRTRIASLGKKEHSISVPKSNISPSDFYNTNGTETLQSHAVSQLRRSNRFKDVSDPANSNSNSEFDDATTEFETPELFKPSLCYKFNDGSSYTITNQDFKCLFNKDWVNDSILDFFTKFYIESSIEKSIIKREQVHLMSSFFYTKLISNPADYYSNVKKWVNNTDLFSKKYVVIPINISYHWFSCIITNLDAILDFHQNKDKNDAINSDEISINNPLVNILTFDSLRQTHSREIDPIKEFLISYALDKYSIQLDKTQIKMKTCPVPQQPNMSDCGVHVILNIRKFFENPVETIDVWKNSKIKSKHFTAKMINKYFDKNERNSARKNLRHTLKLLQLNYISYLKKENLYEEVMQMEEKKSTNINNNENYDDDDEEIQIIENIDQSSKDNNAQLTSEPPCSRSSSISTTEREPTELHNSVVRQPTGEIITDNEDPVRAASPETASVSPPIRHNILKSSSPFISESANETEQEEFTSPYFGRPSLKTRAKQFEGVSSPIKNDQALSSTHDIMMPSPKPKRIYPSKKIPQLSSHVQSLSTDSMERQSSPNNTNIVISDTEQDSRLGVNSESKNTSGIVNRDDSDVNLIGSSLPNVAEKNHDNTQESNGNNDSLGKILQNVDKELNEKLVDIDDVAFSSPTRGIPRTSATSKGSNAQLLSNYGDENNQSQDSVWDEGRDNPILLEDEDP
B2: Protein RED1 (Saccharomyces cerevisiae), P14291 (parent)
chain: B1 chain
partner: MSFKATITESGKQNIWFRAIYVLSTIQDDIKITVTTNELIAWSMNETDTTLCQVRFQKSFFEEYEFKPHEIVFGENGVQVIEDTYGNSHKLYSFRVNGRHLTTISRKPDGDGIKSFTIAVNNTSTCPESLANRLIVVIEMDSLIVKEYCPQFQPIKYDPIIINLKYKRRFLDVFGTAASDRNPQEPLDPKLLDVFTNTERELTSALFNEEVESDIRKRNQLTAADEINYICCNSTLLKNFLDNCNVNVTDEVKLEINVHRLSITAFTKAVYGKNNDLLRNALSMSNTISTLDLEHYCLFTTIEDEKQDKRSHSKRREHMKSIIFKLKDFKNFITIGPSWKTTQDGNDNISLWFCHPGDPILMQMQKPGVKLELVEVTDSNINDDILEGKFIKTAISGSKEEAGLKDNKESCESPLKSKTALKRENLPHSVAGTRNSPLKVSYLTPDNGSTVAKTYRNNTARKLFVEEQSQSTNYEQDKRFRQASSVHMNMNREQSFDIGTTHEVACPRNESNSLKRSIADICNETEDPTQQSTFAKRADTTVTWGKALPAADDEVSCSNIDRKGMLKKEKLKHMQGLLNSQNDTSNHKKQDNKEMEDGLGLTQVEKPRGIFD
B3: Protein RED1 (Saccharomyces cerevisiae), P14291 (parent)
chain: B1 chain
partner: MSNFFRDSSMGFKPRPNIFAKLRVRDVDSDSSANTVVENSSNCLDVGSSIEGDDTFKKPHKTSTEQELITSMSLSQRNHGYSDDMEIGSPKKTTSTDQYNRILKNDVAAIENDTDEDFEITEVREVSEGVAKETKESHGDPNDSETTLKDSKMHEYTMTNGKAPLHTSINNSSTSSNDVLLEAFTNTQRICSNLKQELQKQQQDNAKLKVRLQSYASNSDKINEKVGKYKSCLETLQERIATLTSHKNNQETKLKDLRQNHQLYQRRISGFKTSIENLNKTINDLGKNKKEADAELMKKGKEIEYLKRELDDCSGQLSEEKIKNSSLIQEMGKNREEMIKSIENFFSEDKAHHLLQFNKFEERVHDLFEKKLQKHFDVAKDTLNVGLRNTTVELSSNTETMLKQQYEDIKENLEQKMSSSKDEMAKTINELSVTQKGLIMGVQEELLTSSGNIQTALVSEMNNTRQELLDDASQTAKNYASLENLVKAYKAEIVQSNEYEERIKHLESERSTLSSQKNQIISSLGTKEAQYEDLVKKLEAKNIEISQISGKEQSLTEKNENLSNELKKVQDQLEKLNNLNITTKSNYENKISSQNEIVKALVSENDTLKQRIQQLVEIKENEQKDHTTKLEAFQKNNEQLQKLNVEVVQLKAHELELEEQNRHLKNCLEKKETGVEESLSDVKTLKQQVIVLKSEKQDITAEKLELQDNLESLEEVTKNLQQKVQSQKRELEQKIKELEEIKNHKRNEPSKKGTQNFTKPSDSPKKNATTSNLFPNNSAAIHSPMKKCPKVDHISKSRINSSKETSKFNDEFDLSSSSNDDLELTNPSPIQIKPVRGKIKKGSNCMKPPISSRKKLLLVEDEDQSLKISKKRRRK
B4: Protein RED1 (Saccharomyces cerevisiae), P14291 (parent)
chain: B1 chain
partner: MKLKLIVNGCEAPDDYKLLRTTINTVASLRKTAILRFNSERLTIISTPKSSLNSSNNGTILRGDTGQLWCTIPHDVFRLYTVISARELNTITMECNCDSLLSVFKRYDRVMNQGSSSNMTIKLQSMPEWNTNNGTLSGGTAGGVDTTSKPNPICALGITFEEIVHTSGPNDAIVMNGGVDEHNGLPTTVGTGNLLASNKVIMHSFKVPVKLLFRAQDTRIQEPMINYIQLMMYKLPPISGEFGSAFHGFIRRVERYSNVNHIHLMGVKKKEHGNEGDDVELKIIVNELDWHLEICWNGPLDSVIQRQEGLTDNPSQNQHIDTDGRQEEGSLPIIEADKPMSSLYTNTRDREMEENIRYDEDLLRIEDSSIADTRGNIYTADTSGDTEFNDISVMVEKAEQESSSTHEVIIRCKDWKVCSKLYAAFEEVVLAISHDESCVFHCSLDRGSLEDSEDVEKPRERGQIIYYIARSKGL
B5: Protein RED1 (Saccharomyces cerevisiae), P14291 (parent)
chain: B1 chain

Variants of: B1
Conditions: with ulp2_yeast ULP2, P40537

Row | Variant | effect of a mutation on the interaction
1 | K569R;K570R;K572R;K576R;K577R;K579R;K580R;K581R;K584R;K585R;K590R | disrupting interaction strength

Variants of: B2
Conditions: with ddc1_yeast DDC1, Q08949

Row | Variant | effect of a mutation on the interaction
2 | I743A | disrupting interaction strength

Variants of: B3
Conditions: with zip1_yeast ZIP1, P31111

Row | Variant | effect of a mutation on the interaction
3 | K569R;K570R;K572R;K576R;K577R;K579R;K580R;K581R;K584R;K585R;K590R | disrupting interaction strength

Variants of: B4
Conditions: with mec3_yeast MEC3, Q02574

Row | Variant | effect of a mutation on the interaction
4 | Q537A;V540A | disrupting interaction strength

Variants of: B5
Conditions: with smt3_yeast SMT3, Q12306
Chain of smt3_yeast SMT3, Q12306 (Q12306 whole entry): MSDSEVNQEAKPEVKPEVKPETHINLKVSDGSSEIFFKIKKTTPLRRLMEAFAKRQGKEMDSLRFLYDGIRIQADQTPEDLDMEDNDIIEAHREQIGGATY

Row | Variant | effect of a mutation on the interaction
5 | K569R;K570R;K572R;K576R;K577R;K579R;K580R;K581R;K584R;K585R;K590R | disrupting interaction strength
6 | K569R;K570R;K572R;K576R;K577R | disrupting interaction strength

Source: IntAct's records for PubMed 20534433
